These are literature values, as cited in patent US8618048B2, “Insulin analogues of prolonged activity” (Instytut Biotechnologii I Antybiotyków, priority 2008, dated 2013).

For this data set the following is noted: background statement.

For the substance “unmodified natural insulin: unmodified natural insulin”, the isoelectric point was 5.4.
